US20220089755A1 (COMMISSARIAT A L ENERGIE ATOMIQUE ET AUX ENERGIES …, published 2022)

What was measured:
[1] = molecular target: T1, endothelin receptor subtype A (ETA-R) expressed on the surface of Gli-7 glioblastoma cells (human, UniProt P25101 21-427); assay: flow cytometry on Gli-7 glioblastoma cells
T1 construct: whole, on cells; also called ETA-R on Gli-7; ETAR on glioblastoma cells
T1 sequence (looked up): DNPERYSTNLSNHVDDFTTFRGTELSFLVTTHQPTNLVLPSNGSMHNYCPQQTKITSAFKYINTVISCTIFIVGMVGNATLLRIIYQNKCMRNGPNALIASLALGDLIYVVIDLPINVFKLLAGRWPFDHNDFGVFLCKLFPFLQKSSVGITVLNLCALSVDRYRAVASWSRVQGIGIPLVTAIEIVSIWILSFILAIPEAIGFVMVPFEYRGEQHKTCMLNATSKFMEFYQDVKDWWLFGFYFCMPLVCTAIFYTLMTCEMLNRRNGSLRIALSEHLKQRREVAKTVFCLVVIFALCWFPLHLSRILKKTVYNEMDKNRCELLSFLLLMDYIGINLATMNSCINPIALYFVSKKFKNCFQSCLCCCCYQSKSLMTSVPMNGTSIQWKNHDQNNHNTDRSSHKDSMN

[2] = molecular target: T2, endothelin receptor subtype A (ETA-R) expressed on stably transfected CHO cells (CHO-ETAR) (UniProt P25101 21-427, limits assumed); assay: flow cytometry on CHO-ETAR cells, apparent Kd, one-site fit, with or without 100 nM ET1
T2 construct: whole, on cells; also called endothelin type A receptor
T2 sequence (looked up): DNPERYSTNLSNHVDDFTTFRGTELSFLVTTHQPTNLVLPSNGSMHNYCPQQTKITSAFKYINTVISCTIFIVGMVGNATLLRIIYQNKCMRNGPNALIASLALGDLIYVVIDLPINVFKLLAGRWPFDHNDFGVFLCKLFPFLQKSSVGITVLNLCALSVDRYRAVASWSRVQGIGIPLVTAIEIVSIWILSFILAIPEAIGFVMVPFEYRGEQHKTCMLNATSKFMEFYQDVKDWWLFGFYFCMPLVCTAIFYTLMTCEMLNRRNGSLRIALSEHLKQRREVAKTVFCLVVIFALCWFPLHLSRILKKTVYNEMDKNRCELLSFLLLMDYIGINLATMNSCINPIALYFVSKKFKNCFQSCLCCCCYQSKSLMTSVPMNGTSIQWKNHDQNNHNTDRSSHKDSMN
Description: The fluorescence is quantified by flow cytometry on an FACSCalibur™ (BD Bioscience). A range of concentrations of antibodies lying between, at a maximum, 1 μM and, at a minimum, […] was incubated for 2 hours at 4° C. in the presence or not of 100 nM ET1 (preincubated for 30 minutes at 4° C.). At 90% confluence, the cells are detached in the presence of versene and then aliquoted in tubes (300 μl/300,000 cells) in the presence of a saturation buffer (PBS-SNC 5%-BSA 0.1%) stored at 4° C. After three washes in PBS buffer, 300 μl of secondary antibody labeled with Alexa Fluor™ 488 (AF-488) diluted to 1/400 was added and incubated for 60 minutes at 4° C. (Goat anti-mouse IgG, Invitrogen-ref A10684). For each antibody concentration point, after three washes in PBS, 10,000 cells were counted with flow cytometry.
The data were analysed in the GraphPad Prism software and the curves modelled according to the parameter: a specific binding site. […] The binding of RA63 was therefore not modified in the presence of ET1.

Kd [1]: ~15 nM
Kd [2]: ~0.5 nM
B1: Rendomab-A63 (antibody, mouse IgG2b, V domains shown)
VH: EVQLVESGGGLVQPKGSLKLSCAASGFTFNIYAMNWIRQAPGKGLEWIARIRSKSNNYATYYADSVKDRFTISRDDSQNMVYLQMNNLKTEDTAMYYCVSSYYSGSFFAYWGQGTLVTVSA
VL: DVLMTQTPLSLPVSLGDQASISCRSSQSIVYSNGKIYLEWYLQKPGQSPKLLIYKVSNRFSGVPDRFSGSGSGTDFTLKISRVEAEDLGVYYCFQGSHLPLTFGAGTKLELKR
notes: also called RA63; monoclonal murine antibody from the hybridoma CNCM I-5250
